System: K4 kissing-loop RNA reporter
Assay: apparent KD of K4 kissing-loop reporter; higher = weaker reporter binding
Conditions: Eterna round: R107
Procedure: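 RNA-MaP round R107: designed RNA switches with theophylline, tryptophan, arginine or FMN aptamers are transcribed on-chip within common flanks. They are titrated with a labelled K4 kissing-loop RNA reporter in RNA-MaP buffer (100 mM Tris pH 7.5, 80 mM KCl, 4 mM MgCl2), without ligand or with the indicated ligand. Median apparent KD per design.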

[1] = input ligand: theophylline 20 uM
[2] = input ligand: tryptophan 2.4 mM
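Note: bound reporter read as fluorescence of individual clusters on recovered sequencing chips by microscopy, with normalized cluster intensities fitted with a binding model.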

| Sequence | apparent KD of K4 kissing-loop reporter (input ligand: FMN 200 uM) | apparent KD of K4 kissing-loop reporter (input ligand: arginine 13.2 mM) | apparent KD of K4 kissing-loop reporter (input ligand: none) | apparent KD of K4 kissing-loop reporter [1] | apparent KD of K4 kissing-loop reporter [2] |
| --- | --- | --- | --- | --- | --- |
| UGGGCCGCCUGAGGAUAUAGAGACGAGUGAUGUUCGUGGAUCAGAGCCAGUGAUGUUGGGUUAUUUCUAGAAGGCGGGCGAACUU [Exclusion FMN B GF10] | 116 nM | 112 nM | 120 nM | 118 nM | 120 nM |
| UGGGUGUAGUGAUGUUAUAUAGAGAGUGAUACCAGUUUAGAGAAGAACCCUUGGCAGCAUAGAAGAGUAUCAUUGGAGAAGAAUG [ExTheophyl.As] | 459 nM | 348 nM | 422 nM | 378 nM | 339 nM |
| UGGUUUAACUGAAGGAGCGGCAAUUGAUAAGUAGAUAUAGUGAUGUUAUAUAAGAUAGAGAGCCAGGUAGGUCGCAGAGGUGUUU [ExArgB.Q] | 208 nM | 204 nM | 232 nM | 253 nM | 189 nM |
| UGUACCGAGUCAGGAUAUGGCGUCGAAAGACGAAUCUUAGUGAUGUUAGGGAUCUGCGAAAGCAGUCCAGAAGGGACUUGGUACU [FmnBS 26 U37] | 568 nM | 583 nM | 768 nM | 605 nM | 902 nM |
| UGUACCGAGUCAGGAUAUGGCGUCGAAAGACGAAUGCUAGUGAUGUUAGGGAUCUGCGAAAGCAGUCCAGAAGGGACUUGGUACU [FmnBS 26 G36] | 381 nM | 471 nM | 653 nM | 634 nM | 649 nM |
| UGUCAUGGAAACAUGAACGUUAAAAUAAAUCGAGGACCGGUACGGCCGCCACUCGUAUAGCGGUCAGUGAUGUUGACUGUAGUAA [KL-SSTryp-A form2 sub8] | 99.2 nM | 116 nM | 108 nM | 116 nM | 96.8 nM |
| UGUCAUUGGUCGGCCGCCACUAGGACCGGGUAUAGCCUAGUGAUGUUAGUAAGUACGGCCGCCACUAGGACCGGGACCGAUGACU [KL-SSTryp-B21 #DoubleAptamer] | 742 nM | 57 nM | 591 nM | 674 nM | 131 nM |
| UGUCAUUGGUCGGCCGCCACUGAAAUAAAAGAGUGAUGUUCUUAAAAGACGGACAAAGUCUGUCAUAGGACCGGGACCGAUGACU [TrypBS 24 #SwitchBubble #StaticStem] | 662 nM | 558 nM | 473 nM | 369 nM | 380 nM |
| UGUCAUUGGUCGGCCGCCACUUCAAGGUCAAAGACCAAAGAGUGAUGUUCUAAGACGAAAGUCAGAAGGACCGGGACCGAUGACU [TrypBS 10 #SwitchBubble #K4Middle] | 168 nM | 67.7 nM | 128 nM | 223 nM | 1220 nM |
| UGUCAUUGGUCGGCCGCCACUUCAUGUAGAGUGAUGUUUUGUAGGACGGAUCGAAAGAUCUGUCGAAGGACCGGGACCGAUGACU [FiskerMod 15 - Jieux - Same State - Tryptophan B] | 233 nM | 84.7 nM | 197 nM | 235 nM | 1040 nM |
| UGUCAUUGGUCGGCCGCCACUUCGUGUAGAGUGAUGUUUUGUAGGACGGAUCGAAAGAUCUGUCGGAGGACCGGGACCGAUGACU [FiskerMod 17 - Jieux - Same State - Tryptophan B] | 228 nM | 139 nM | 408 nM | 481 nM | 889 nM |
| UGUCAUUGGUCUGAUACCAGUCCCUUGGCAGCCUAAAGGAGUGAUGUUCCAAGGAUACCAGACCCUUGGCAGCAGACCGAUGACU [TheoBS 28 #DoubleAptamer #SwitchBubble] | 351 nM | 312 nM | 360 nM | 260 nM | 354 nM |
| UGUCAUUGGUCUGAUACCAGUUAGCGCGAUAAGCGCAAAACUGGAGUGAUGUUCCCAAAUAACCCUUGGCAGCAGACCGAUGACU [MAT - Same State Theophlline B - Mod of Eli - D13] | 337 nM | 155 nM | 235 nM | 189 nM | 176 nM |
| UGUGAACAAAAGUAGAGUGGACCACUAUAGCGAGGACCGGUACGGCCGCCACUCGUACAUGAAUUCAGUGAUGUUGAAAAGAGCU [whbob_EX_Tryp_A_t13] | 294 nM | 413 nM | 307 nM | 400 nM | 209 nM |
| UGUGAACAAAAGUAGAGUGGACCACUAUAGCGAGGACCGGUACGGCCGCCACUCGUACAUGAAUUCAGUGAUGUUGAAAUGAGCU [whbob_EX_Tryp_A_t14] | 234 nM | 360 nM | 334 nM | 426 nM | 213 nM |
| UGUGAUGUGUAGUGUUAUGUUUUGCGGGAUACCAGAGUCUUUUUAUUCCCUUGGCAGCUUGAGUGAUGUUUGAUGCUGUUCUUGU [cxxdmullin] | 453 nM | 349 nM | 439 nM | 410 nM | 352 nM |
| UGUGAUGUUGUGAUGUUUAGUGUUGUUGGGCAGGAUAUUGUAGAGGCGAGAAGGGCUUGUGUGAUGUAUGAGUGAUGUUUGUAGU [cffdmullin] | 177 nM | 89.6 nM | 127 nM | 142 nM | 119 nM |
| UGUGCCAAAUGUGAUACCAGCAUCCUGCAGUGAUGUUGCAUACGAGUGAUGUUCGUCCGAUGCCCUUGGCAGCGCAGUAGUUUGA [Same State Theophylline B GF 26] | 264 nM | 263 nM | 307 nM | 326 nM | 239 nM |
| UGUGUUGUUGUGAUGUUUGGUGUUGUAGGGCAGGAUAUCGUAGAGGCGAGAAGGGCUUGUGGGCGGUAUGAGUGAUGUUUGUAGG [cfiuxmullin] | 116 nM | 77.6 nM | 124 nM | 143 nM | 101 nM |
| UUAACCAACAGCGAUACCAGCGUGGAGUGAUGUUCCGAGGAUCGGAGUGAUGUUCCGAAGCGCCCUUGGCAGCGCAGAAGCGCAA [Exclusion Theophylline B GF8] | 193 nM | 148 nM | 241 nM | 251 nM | 255 nM |
| UUAAUAUUGUCGGCCGCCACUGGAUAGUAAUUUGUAUAAUCUAUUUCAAAGUGAUGUUUUGAGUCCAGGACCGGGACAUUUGAUA [JR_Nu_ExcTryptoB_Sub030] | 503 nM | 363 nM | 455 nM | 406 nM | 297 nM |

| Sequence | apparent KD of K4 kissing-loop reporter (input ligand: FMN 200 uM) | apparent KD of K4 kissing-loop reporter (input ligand: arginine 13.2 mM) | apparent KD of K4 kissing-loop reporter (input ligand: none) | apparent KD of K4 kissing-loop reporter [1] | apparent KD of K4 kissing-loop reporter [2] |
| --- | --- | --- | --- | --- | --- |
| UUAGAGAUCUCAGGAUAUCAGUGAUGUUGAGAUUCAGAUCUGAGAUAGAAUUCUAUCUCAGAUCAAUGAGAAGGGAGAUCUCAUU [AK4.4 Exc FMN B] | 463 nM | 540 nM | 649 nM | 699 nM | 443 nM |
| UUAGAUCUUCUAGAUACCAGUCUGUGUAUCAAUGAUACACUUGACUGAGUGAUGUUCAGAGGCCCUUGGCAGCUAGAAGAUCAUU [AK1 SS Theophylline B] | 761 nM | 473 nM | 727 nM | 849 nM | 490 nM |
| UUAGGAGUGGAAGGAUAUCCUGGUGUGGGUGAUGUUAGUGAUGUUGAAAGUGCAGUGAUGUUGUGCGGAGAAGGUCCGGUGUUGA [BDazzled - #8 - Exc. FMN B] | 147 nM | 124 nM | 176 nM | 243 nM | 145 nM |
| UUAGUUAGAUUAUUAUUAGCCUACAAUGCUAAGGAUAUCCGAAUUCGGAGAAGGUAGUGAUGUUACUUAAGUAGGCACUAACAUU [AK7 Exc FMN A] | 257 nM | 745 nM | 932 nM | 925 nM | 671 nM |
| UUAUCAUCAGCGGCCGCCACUGCAAAUUGGAGUGAUGUUCCAAGCGUGGAUAAUGAAAUCACUAGUAGGACCGGGUUGAUGAAUU [AK 1 Ex Trypt B] | 309 nM | 231 nM | 270 nM | 254 nM | 306 nM |
| UUGACCUACUCAGGAUAUCCGCAGUGAUGUUGCGGUUGGCCUGAGCGGCAUGAAAAUCUUACUACAGGAGAAGGGAGAGGGUUAC [Atusgeis] | 117 nM | 85.6 nM | 82.6 nM | 72.9 nM | 86 nM |
| UUGAGCCGGACUUAAGUCCGGCUCUGCGAGCGAGGACCGGUACGGCCGCCACUCGGUGCAGUGAUGUUGCAUGGCCGCAAGGCCG [#2 Exclusion - Tryptophan A Attempt #11 (HarryS)] | 269 nM | 209 nM | 298 nM | 231 nM | 296 nM |
| UUGAGCCUGACGGAAGUCAGGCUCUGCGAGCGAGGACCGGUACGGCCGCCACUCGGUGCAGUGAUGUUGCAUGGCCGCAAGGCCG [#2 Exclusion - Tryptophan A Attempt #16 (HarryS)] | 311 nM | 290 nM | 352 nM | 311 nM | 420 nM |
| UUGCCUUUGAGCGAUACCAGCAGCGUCGGCCUUAGAUUGGGAGGCAUGGCAAGUGAUGUUUGCCCUUGGCAGCGCGUAUAGUACA [theeternabot_exclusion_KL_Theo_B_7] | 197 nM | 320 nM | 459 nM | 439 nM | 219 nM |
| UUGGACCUUAGCCUCAAUAGAACUUUGUUACGAGGACCGGUACGGCCGCCACUCGUCGGGCUCCGAUAGCCAGUGAUGUUGGCAA [theeternabot_sameState_KL_Trp_A_16] | 429 nM | 405 nM | 693 nM | 1010 nM | 212 nM |
| UUGUAUACUUUUGUGUGCGAUGUGUAGCCGCGAGGACCGGUACGGCCGCCACUCGCUGAGAGUGAUGUUCUCUGGGCUAUAUAUC [Skye_SS_TA3] | 1100 nM | 924 nM | 1700 nM | 794 nM | 234 nM |
| UUUAAAUAUAGUGAUGUUAUAUAACAAUGACGAGGACCGGUACGGCCGCCACUCGAGAGAGAUAAUGAUAAAAUAAAUAAUUUUC [AstrosSSTrypA#1] | 480 nM | 654 nM | 643 nM | 628 nM | 374 nM |
| UUUAAAUAUAGUGAUGUUAUAUAACAAUGACGAGGACCGGUACGGCCGCCACUCGAGAGAGAUAAUGAUAAAAUACAUAAUUUUC [AstrosSSTrypA#2] | 668 nM | 746 nM | 806 nM | 709 nM | 474 nM |
| UUUAAAUAUAGUGAUGUUAUAUAACAAUGACGAGGACCGGUACGGCCGCCACUCGAGAGAGAUAAUGGUCUUACAAAUGUAAGUC [AstrosSSTryA#8] | 546 nM | 589 nM | 852 nM | 738 nM | 399 nM |
| UUUAACGAGUGAUGUUCGAAAAGUAAUAGUUAGGAUAUCGUUUUUUCGAGAAGGAACUUCGAAGUGAUACGAAAGUAUCGCUUCG [FMN A 1] | 180 nM | 359 nM | 287 nM | 351 nM | 181 nM |
| UUUAUAUUGUCGGCCGCCACUGGAUCAAUAUUUGUAUGAUCUAGUUCAAAGUGAUGUUUUGAGUCCAGGACCGGGACAUUUGUUA [JR_ExcTryptoB_Sub005] | 708 nM | 558 nM | 669 nM | 558 nM | 917 nM |
| UUUCGCUUCGUCUGAUAUAAUUGGCCAGAAGGAGCGGUAGAAUUACCAGGUAGGUCGCUGGCCCAGUGAUGUUGGGACUAGCGUG [Isrianve] | 118 nM | 103 nM | 104 nM | 107 nM | 94.1 nM |
| UUUCGGUUCUGAGGAUAUUCGGACAAAUAUAGUGAUGUUGUAUAAGGAGGAGGGUGUUGGGAGUGAGGAGAAGGCAGAAGAGGAU [ExFMNB.S] | 838 nM | 707 nM | 759 nM | 670 nM | 473 nM |
| UUUGAAAUGUCUGAUACCAGAGAAAAUAUAUGUAGUGAUGUUAUAUACAAAUUUAAUAAGCUCCCUUGGCAGCAGUAUGAAUUUU [AstrosExc-TheB#14] | 593 nM | 717 nM | 796 nM | 748 nM | 582 nM |
| UUUGGAAGCGGUGUUGAUUAGGGAGCGGAAGGAGCGCCGAGGAGGGCAGGUAGGUCGCCGGAAUGUAGUGAUGUUGCAUAGAGGU [ExArgA.Aa] | 290 nM | 265 nM | 214 nM | 526 nM | 178 nM |
| UUUGGUUUCUCGGCCGCCACUCGUUGUCUAUCGGCUUCAGGGAUAUAGUGAUGUUAUGUAUAGAAGAGGACCGGGAGAAGGUUCC [ExTryptoB.Dy] | 217 nM | 169 nM | 303 nM | 237 nM | 165 nM |

— the supplement of paper PMC9170038
